{
  "source": "paper PMC12654638",
  "biological_target": "carotenoependymin-Purple1 (Cep-Purple1) (Haliclona sp. (purple sponge))",
  "assay": "SEC; HPLC size-exclusion chromatography (TSKgel G3000SWXL), calibrated with molecular standards; native protein estimated at 41-43 kDa against 23 kDa on SDS-PAGE",
  "data": [
    {"substance": "carotenoependymin-Purple1 (Cep-Purple1) (natural protein)", "values": [
      {"measurement": "stoichiometry N", "value": 2}
    ]}
  ]
}
